Data as given in publication PMC3695727.

Target: Orai expressed in cell membranes (Drosophila melanogaster) (UniProt Q9U6B8)
Test: cross-linking

stoichiometry N: 6
Substance: Orai expressed in cell membranes (from UniProt Q9U6B8 1-351) (natural protein)
